Values of other authors as cited in patent publication US20190351024A1, “IMMUNOCYTOKINES WITH PROGRESSIVE ACTIVATION MECHANISM” (PHILOGEN S.p.A., priority 2016, published 2019).

Details: past clinical trials; cited from earlier work

For TNF-α, the maximum tolerated dose is listed as 150-300 μg/m^2/day.
